The target in this series is Ku70/80 heterodimer (Ku) (UniProt P12956;P13010 1-609;1-732). Nature of the series: EMSA. A general note: In EMSA bound probe runs differently from free probe, usually more slowly.
Sequence of Ku70/80 heterodimer (Ku) (P12956 whole entry, chain 1 of 2): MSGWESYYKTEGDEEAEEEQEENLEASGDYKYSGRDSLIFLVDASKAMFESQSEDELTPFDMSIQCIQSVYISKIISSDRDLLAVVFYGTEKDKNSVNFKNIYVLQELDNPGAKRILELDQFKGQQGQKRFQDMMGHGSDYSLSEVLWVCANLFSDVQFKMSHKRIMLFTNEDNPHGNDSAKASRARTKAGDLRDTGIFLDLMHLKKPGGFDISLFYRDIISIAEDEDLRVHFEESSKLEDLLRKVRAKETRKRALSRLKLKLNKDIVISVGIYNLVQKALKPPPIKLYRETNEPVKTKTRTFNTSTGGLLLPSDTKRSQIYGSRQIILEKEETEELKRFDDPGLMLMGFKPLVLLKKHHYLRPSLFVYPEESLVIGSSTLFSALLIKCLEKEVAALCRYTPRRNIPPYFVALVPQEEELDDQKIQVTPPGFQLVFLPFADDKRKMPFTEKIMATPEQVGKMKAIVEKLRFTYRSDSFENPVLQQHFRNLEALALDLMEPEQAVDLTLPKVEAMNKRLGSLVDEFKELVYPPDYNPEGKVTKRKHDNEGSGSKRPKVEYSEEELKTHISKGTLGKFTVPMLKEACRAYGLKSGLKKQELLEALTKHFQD
Sequence of Ku70/80 heterodimer (Ku) (P13010 whole entry, chain 2 of 2): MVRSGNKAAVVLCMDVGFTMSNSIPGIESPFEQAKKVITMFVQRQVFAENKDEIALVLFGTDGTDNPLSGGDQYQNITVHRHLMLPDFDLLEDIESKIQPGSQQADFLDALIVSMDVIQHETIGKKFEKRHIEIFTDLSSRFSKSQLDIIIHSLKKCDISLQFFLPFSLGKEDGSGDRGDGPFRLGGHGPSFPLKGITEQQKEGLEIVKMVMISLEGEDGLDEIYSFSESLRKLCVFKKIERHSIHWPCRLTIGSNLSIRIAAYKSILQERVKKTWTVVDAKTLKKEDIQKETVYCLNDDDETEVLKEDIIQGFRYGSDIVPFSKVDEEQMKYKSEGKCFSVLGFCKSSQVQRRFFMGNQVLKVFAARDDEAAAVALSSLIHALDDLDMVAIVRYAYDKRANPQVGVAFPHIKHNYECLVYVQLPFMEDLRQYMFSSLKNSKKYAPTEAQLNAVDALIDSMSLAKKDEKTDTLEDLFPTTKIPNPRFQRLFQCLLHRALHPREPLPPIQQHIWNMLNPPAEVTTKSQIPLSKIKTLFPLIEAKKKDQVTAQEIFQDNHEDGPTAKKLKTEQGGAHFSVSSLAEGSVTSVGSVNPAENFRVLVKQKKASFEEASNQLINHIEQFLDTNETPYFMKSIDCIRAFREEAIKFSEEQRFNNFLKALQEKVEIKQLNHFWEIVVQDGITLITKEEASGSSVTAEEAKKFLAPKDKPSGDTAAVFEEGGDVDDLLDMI

B1: BZ57/BZ109 25 bp Cy3 duplex (dsDNA)
DNA 1: GATGCCTCCAAGGTCGACGATGCAG
DNA 2: CTGCATCGTCGACCTTGGAGGCATC
modifications: internal Cy3 in backbone after nt 4 of each strand
As a reminder, the Kd is the equilibrium constant for the complex coming apart. High values mean lower affinity, low ones higher affinity. The molecule B1 yielded a Kd of 0.11 nM.

B2: BZ91/BZ107 25 bp duplex (dsDNA)
DNA 1: GATGCCTCCAAGGTCGACGATGCAG
DNA 2: CTGCATCGTCGACCTTGGAGGCATC
In turn, B2 registered a Kd of 0.086 nM.
